Consider two molecules from PMC6237750.

Data set [1] concerns the target T1, DNA polymerase beta I260Q (NMR, crystal) (UniProt P06746 1-335, I260Q). In words: X-ray crystallography; binary; NaI soak; NMR: 50 mM HEPES, 100 mM KCl, 2 mM DTT, 10 mM MgCl2, 10% D2O, pH 7.4; crystals: 18-20% PEG 3350, 50 mM HEPES pH 7.5, 175-250 mM Na acetate, 2 mM TCEP, 1% tert-b.
The target of data set [2] is T1, DNA polymerase beta I260Q (NMR, crystal). In words: NMR; binary, 10 mM MgCl2; NMR: 50 mM HEPES, 100 mM KCl, 2 mM DTT, 10 mM MgCl2, 10% D2O, pH 7.4; crystals: 18-20% PEG 3350, 50 mM HEPES pH 7.5, 175-250 mM Na acetate, 2 mM TCEP, 1% tert-b.

B1: X-ray substrate template A (16) (dsDNA)
DNA 1: CCGACAGCGCATCAGC
DNA 2: GCTGATGCGC
DNA 3: GTCGG
Regarding B1, the binding result in data set [1] is “binds”.

B2: NMR substrate template T (20) (dsDNA)
DNA 1: CGACCGACTGCGCATCAGCC
DNA 2: GGCTGATGCGC
DNA 3: GTCGGTCG
For B2, the binding result in data set [2] is given as “binds”.
